First the molecules themselves.
B1: GpH7-B3 variant G237_20W/GpL16-k0 (antibody, human IgG1, kappa)
heavy: not shown
light: DIVMTQSPLSLPVTPGEPASISCQASESLVHSNRNTYLHWYLQKPGQSPQLLIYKVSNRFSGVPDRFSGSGSGTDFTLKISRVEAEDVGVYYCSQNTHVPPTFGQGTKVEIERTVAAPSVFIFPPSDEQLKSGTASVVCLLNNFYPREAKVQWKVDNALQSGNSQESVTEQDSKDSTYSLSSTLTLSKADYEKHKVYACEVTHQGLSSPVTKSFNRGEC
notes: also called Ho Ab G237_20W
B2: GpH7-B3 variant I332_02A/GpL16-k0 (antibody, human IgG1, kappa)
heavy: not shown
light: B1 light
notes: also called Ho Ab I332_02A
B3: GpH7-B3 variant N325_03V/GpL16-k0 (antibody, human IgG1, kappa)
heavy: not shown
light: B1 light
notes: also called Ho Ab N325_03V
B4: GpH7-B3 variant P238_19Q/GpL16-k0 (antibody, human IgG1, kappa)
heavy: not shown
light: B1 light
notes: also called Ho Ab P238_19Q
B5: GpH7-B3 variant N325_09D/GpL16-k0 (antibody, human IgG1, kappa)
heavy: not shown
light: B1 light
notes: also called Ho Ab N325_09D
B6: GpH7-B3 variant N325_04F/GpL16-k0 (antibody, human IgG1, kappa)
heavy: not shown
light: B1 light
notes: also called Ho Ab N325_04F
B7: GpH7-B3 variant L234_10E/GpL16-k0 (antibody, human IgG1, kappa)
heavy: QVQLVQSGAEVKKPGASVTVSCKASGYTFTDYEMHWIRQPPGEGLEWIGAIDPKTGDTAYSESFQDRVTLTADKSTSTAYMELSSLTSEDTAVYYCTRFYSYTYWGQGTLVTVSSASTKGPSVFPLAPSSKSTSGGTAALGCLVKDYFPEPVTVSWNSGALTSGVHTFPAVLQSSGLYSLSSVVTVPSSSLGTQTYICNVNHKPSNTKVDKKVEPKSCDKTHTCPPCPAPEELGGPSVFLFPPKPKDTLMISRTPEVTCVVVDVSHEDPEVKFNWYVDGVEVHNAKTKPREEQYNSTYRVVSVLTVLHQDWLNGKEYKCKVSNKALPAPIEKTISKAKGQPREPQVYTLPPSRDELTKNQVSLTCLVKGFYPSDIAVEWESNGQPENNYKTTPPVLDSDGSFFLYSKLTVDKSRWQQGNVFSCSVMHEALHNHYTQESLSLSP
light: B1 light
notes: also called Ho Ab L234_10E
B8: GpH7-B3 variant L235_04F/GpL16-k0 (antibody, human IgG1, kappa)
heavy: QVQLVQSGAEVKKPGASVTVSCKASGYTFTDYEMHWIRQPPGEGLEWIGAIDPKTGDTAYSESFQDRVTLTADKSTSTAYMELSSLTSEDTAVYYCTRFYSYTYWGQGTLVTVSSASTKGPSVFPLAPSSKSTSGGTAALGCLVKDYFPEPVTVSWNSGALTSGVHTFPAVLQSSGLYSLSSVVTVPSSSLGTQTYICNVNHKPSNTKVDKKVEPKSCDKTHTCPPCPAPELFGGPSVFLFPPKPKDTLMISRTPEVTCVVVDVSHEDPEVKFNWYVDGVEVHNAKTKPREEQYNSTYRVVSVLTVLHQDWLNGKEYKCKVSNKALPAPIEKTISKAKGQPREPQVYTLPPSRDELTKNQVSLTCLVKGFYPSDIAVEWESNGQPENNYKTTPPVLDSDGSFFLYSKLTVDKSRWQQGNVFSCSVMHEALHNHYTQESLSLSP
light: B1 light
notes: also called Ho Ab L235_04F
B9: GpH7-B3 variant P238_15Y/GpL16-k0 (antibody, human IgG1, kappa)
heavy: not shown
light: B1 light
notes: also called Ho Ab P238_15Y
B10: GpH7-B3 variant P238_16H/GpL16-k0 (antibody, human IgG1, kappa)
heavy: not shown
light: B1 light
notes: also called Ho Ab P238_16H
B11: GpH7-B3 variant L328_10E/GpL16-k0 (antibody, human IgG1, kappa)
heavy: not shown
light: B1 light
notes: also called Ho Ab L328_10E
B12: GpH7-B3 variant K326_08L/GpL16-k0 (antibody, human IgG1, kappa)
heavy: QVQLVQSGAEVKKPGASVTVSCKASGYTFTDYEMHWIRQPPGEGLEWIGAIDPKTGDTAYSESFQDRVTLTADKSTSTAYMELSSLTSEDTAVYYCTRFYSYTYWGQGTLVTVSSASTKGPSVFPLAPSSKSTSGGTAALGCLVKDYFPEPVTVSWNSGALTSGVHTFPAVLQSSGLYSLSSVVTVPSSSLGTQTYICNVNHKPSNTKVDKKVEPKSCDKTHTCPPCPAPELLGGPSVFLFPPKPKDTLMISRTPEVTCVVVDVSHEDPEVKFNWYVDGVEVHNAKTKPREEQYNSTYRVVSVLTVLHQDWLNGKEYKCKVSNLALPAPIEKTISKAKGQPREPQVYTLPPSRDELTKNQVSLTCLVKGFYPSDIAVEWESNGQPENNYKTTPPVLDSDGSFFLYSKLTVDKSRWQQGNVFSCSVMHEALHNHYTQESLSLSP
light: B1 light
notes: also called Ho Ab K326_08L
B13: GpH7-B3 variant H268_15Y/GpL16-k0 (antibody, human IgG1, kappa)
heavy: not shown
light: B1 light
notes: also called Ho Ab H268_15Y
B14: GpH7-B3 variant N325_01G/GpL16-k0 (antibody, human IgG1, kappa)
heavy: not shown
light: B1 light
notes: also called Ho Ab N325_01G
B15: GpH7-B3 variant N325_07I/GpL16-k0 (antibody, human IgG1, kappa)
heavy: not shown
light: B1 light
notes: also called Ho Ab N325_07I
B16: GpH7-B3 variant P238_04F/GpL16-k0 (antibody, human IgG1, kappa)
heavy: not shown
light: B1 light
notes: also called Ho Ab P238_04F
B17: GpH7-B3 variant L235_20W/GpL16-k0 (antibody, human IgG1, kappa)
heavy: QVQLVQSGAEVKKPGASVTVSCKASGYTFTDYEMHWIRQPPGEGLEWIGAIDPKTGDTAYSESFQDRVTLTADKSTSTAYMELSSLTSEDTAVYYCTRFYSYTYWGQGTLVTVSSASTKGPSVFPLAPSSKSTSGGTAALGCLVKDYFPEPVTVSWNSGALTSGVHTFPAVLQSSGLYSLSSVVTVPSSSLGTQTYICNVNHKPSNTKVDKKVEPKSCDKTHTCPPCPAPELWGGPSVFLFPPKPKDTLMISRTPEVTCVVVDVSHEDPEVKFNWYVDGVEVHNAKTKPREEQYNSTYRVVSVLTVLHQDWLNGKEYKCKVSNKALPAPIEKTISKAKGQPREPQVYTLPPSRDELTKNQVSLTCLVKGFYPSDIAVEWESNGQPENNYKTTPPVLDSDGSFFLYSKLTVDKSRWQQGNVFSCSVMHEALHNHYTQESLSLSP
light: B1 light
notes: also called Ho Ab L235_20W
B18: GpH7-B3 variant N325_06M/GpL16-k0 (antibody, human IgG1, kappa)
heavy: not shown
light: B1 light
notes: also called Ho Ab N325_06M
B19: GpH7-B3 variant I336_06M/GpL16-k0 (antibody, human IgG1, kappa)
heavy: not shown
light: B1 light
notes: also called Ho Ab I336_06M
B20: GpH7-B3 variant L328_09D/GpL16-k0 (antibody, human IgG1, kappa)
heavy: not shown
light: B1 light
notes: also called Ho Ab L328_09D
B21: GpH7-B3 variant N325_08L/GpL16-k0 (antibody, human IgG1, kappa)
heavy: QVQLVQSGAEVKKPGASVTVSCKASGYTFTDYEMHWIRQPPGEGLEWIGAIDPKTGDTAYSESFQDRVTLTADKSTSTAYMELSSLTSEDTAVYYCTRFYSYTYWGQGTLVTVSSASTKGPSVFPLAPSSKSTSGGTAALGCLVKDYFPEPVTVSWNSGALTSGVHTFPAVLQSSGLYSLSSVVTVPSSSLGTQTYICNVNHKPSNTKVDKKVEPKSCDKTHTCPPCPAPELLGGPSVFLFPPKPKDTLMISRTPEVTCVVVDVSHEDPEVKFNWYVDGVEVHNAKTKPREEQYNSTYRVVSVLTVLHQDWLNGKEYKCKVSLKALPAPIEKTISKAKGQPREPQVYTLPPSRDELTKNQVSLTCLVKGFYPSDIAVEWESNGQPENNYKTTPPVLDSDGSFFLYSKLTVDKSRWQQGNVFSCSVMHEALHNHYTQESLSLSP
light: B1 light
notes: also called Ho Ab N325_08L
B22: GpH7-B3 variant N325_13S/GpL16-k0 (antibody, human IgG1, kappa)
heavy: not shown
light: B1 light
notes: also called Ho Ab N325_13S
B23: GpH7-B3 variant L235_09D/GpL16-k0 (antibody, human IgG1, kappa)
heavy: not shown
light: B1 light
notes: also called Ho Ab L235_09D
B24: GpH7-B3 variant P238_09D/GpL16-k0 (antibody, human IgG1, kappa)
heavy: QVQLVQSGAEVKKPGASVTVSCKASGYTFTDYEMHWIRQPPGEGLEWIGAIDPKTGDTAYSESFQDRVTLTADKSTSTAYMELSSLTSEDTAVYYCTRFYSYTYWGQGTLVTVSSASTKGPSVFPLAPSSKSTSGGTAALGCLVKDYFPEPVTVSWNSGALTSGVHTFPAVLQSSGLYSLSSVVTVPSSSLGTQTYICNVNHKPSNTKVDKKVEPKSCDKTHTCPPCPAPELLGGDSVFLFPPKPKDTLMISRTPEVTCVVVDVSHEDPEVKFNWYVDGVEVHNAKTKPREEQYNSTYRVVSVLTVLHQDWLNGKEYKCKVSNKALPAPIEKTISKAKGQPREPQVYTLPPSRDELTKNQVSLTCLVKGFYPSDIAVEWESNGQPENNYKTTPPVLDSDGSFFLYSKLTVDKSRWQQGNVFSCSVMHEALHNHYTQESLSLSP
light: B1 light
notes: also called Ho Ab P238_09D
B25: GpH7-B3 variant P238_03V/GpL16-k0 (antibody, human IgG1, kappa)
heavy: not shown
light: B1 light
notes: also called Ho Ab P238_03V
B26: GpH7-B3 variant L234_09D/GpL16-k0 (antibody, human IgG1, kappa)
heavy: not shown
light: B1 light
notes: also called Ho Ab L234_09D
B27: GpH7-B3 variant P238_20W/GpL16-k0 (antibody, human IgG1, kappa)
heavy: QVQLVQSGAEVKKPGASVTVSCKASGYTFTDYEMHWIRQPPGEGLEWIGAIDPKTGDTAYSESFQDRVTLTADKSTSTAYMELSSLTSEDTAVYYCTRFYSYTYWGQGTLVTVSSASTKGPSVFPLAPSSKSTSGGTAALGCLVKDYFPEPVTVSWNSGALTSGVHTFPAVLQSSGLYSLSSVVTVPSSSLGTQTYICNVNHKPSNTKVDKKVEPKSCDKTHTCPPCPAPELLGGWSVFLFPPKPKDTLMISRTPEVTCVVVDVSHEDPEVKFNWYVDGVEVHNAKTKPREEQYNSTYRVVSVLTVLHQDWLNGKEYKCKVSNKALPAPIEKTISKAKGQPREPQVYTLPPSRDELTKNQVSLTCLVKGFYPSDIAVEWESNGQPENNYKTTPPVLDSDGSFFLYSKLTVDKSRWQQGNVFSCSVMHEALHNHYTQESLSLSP
light: B1 light
notes: also called Ho Ab P238_20W
B28: GpH7-B3 variant K326_07I/GpL16-k0 (antibody, human IgG1, kappa)
heavy: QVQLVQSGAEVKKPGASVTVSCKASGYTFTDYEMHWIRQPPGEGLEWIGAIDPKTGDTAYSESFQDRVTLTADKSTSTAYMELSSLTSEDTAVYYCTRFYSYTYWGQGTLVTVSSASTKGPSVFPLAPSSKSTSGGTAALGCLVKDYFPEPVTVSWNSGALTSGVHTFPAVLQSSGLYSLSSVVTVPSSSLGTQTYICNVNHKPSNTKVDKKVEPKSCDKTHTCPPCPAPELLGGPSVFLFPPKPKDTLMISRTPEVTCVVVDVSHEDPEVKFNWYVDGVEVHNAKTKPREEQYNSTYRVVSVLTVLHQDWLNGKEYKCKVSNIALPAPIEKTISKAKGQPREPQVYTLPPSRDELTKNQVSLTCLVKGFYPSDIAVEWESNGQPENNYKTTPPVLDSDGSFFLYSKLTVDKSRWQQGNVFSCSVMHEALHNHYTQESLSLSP
light: B1 light
notes: also called Ho Ab K326_07I
B29: GpH7-B3 variant I332_14T/GpL16-k0 (antibody, human IgG1, kappa)
heavy: not shown
light: B1 light
notes: also called Ho Ab I332_14T
B30: GpH7-B3 variant K326_20W/GpL16-k0 (antibody, human IgG1, kappa)
heavy: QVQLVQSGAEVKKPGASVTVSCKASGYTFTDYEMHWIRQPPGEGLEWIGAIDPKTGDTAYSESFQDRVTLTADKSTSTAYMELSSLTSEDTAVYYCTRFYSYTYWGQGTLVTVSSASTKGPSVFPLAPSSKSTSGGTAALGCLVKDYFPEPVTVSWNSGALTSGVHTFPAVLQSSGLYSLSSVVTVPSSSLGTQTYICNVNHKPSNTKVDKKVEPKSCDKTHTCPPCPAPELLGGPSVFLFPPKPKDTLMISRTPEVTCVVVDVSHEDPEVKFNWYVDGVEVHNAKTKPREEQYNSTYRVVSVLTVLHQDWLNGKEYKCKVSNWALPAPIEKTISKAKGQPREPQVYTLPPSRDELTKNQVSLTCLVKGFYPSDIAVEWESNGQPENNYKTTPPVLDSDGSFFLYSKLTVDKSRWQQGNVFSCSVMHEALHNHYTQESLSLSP
light: B1 light
notes: also called Ho Ab K326_20W
B31: GpH7-B3 variant L234_20W/GpL16-k0 (antibody, human IgG1, kappa)
heavy: not shown
light: B1 light
notes: also called Ho Ab L234_20W
B32: GpH7-B3 variant L328_02A/GpL16-k0 (antibody, human IgG1, kappa)
heavy: not shown
light: B1 light
notes: also called Ho Ab L328_02A
B33: GpH7-B3 variant L328_13S/GpL16-k0 (antibody, human IgG1, kappa)
heavy: not shown
light: B1 light
notes: also called Ho Ab L328_13S
B34: GpH7-B3 variant P238_06M/GpL16-k0 (antibody, human IgG1, kappa)
heavy: not shown
light: B1 light
notes: also called Ho Ab P238_06M
B35: GpH7-B3 variant N325_20W/GpL16-k0 (antibody, human IgG1, kappa)
heavy: not shown
light: B1 light
notes: also called Ho Ab N325_20W
B36: GpH7-B3 variant I336_08L/GpL16-k0 (antibody, human IgG1, kappa)
heavy: not shown
light: B1 light
notes: also called Ho Ab I336_08L
B37: GpH7-B3 variant L235_15Y/GpL16-k0 (antibody, human IgG1, kappa)
heavy: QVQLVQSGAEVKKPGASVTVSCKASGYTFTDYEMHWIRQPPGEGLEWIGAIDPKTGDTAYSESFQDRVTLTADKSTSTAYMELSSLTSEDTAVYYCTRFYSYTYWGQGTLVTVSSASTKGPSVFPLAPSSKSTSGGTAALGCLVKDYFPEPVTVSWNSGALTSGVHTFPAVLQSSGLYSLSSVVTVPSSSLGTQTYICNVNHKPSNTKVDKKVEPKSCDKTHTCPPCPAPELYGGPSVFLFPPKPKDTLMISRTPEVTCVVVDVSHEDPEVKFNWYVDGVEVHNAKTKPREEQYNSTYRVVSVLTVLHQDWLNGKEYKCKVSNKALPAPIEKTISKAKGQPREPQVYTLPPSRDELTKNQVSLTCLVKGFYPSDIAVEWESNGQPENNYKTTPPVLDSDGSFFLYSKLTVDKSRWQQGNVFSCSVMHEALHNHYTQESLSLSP
light: B1 light
notes: also called Ho Ab L235_15Y
B38: GpH7-B3 variant P238_10E/GpL16-k0 (antibody, human IgG1, kappa)
heavy: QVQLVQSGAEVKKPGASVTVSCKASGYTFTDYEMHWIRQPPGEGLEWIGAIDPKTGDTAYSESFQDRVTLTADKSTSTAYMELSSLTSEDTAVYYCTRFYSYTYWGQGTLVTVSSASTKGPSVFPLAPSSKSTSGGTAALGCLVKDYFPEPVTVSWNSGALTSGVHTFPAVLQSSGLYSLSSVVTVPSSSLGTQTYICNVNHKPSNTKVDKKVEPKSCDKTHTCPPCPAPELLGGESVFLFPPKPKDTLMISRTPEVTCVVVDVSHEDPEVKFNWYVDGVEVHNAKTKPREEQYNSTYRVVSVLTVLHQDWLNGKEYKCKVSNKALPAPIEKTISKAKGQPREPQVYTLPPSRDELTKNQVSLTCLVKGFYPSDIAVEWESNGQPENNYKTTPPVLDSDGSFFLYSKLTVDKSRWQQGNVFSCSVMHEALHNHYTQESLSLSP
light: B1 light
notes: also called Ho Ab P238_10E
B39: GpH7-B3 variant H268_05P/GpL16-k0 (antibody, human IgG1, kappa)
heavy: not shown
light: B1 light
notes: also called Ho Ab H268_05P
B40: GpH7-B3 variant H268_03V/GpL16-k0 (antibody, human IgG1, kappa)
heavy: not shown
light: B1 light
notes: also called Ho Ab H268_03V

This assay deals with T1, FcγRIIb (human, UniProt P31994 43-217).
T1 construct: extracellular domain; also called 2b; FcgRIIb
T1 sequence (looked up): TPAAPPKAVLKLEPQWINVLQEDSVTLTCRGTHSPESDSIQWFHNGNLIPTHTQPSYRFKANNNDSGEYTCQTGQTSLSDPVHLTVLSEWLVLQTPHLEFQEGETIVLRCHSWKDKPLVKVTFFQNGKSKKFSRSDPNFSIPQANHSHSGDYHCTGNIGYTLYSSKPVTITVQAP
Description: SPR (Biacore), binding relative to GpH7-B3/GpL16-k0 = 100. The protocol: Analysis of interaction between objective antibody and the FcγR was carried out using Biacore T100 (GE Healthcare). HBS-EP+ (GE Healthcare) was used as the running buffer, and the measurement temperature was set to 25° C. Chips produced by immobilizing the antigen peptide by the amine coupling method to a Series S Sencor Chip CM5 (GE Healthcare), or alternatively, chips produced by allowing preliminarily biotinylated antigen peptides to interact with and immobilize onto a Series S Sensor Chip SA (certified) (GE Healthcare) were used. Antibodies of interest were captured onto an antigen peptide-immobilized chip, and allowed to interact to each FcγR diluted with running buffer. To regenerate and repeatedly use the chip, the antibodies captured on the chip were washed off by reacting 10 mM glycine-HCl, pH 1.5.
The FcγR-binding activity of each antibody was assessed primarily using as an indicator the FcγR-binding activity and dissociation constant for FcγR.
On the technique in general: Surface plasmon resonance follows binding to a sensor surface in real time, without labels.
B1: the Ho/Con_2b is 166 % of control.

Regarding B2, the Ho/Con_2b is 81.8 % of control.

Turning to B3, the Ho/Con_2b was 31.8 % of control.

For the molecule B4, the Ho/Con_2b was 42.7 % of control.

Consider B5, for which the Ho/Con_2b was 77 % of control.

For the molecule B6, the Ho/Con_2b is 65.7 % of control.

For B7, the Ho/Con_2b was 54.9 % of control.

For B8, the Ho/Con_2b was 111 % of control.

On to B9, for which the Ho/Con_2b was 114 % of control.

For B10, the Ho/Con_2b is 18.8 % of control.

As for B11, the Ho/Con_2b was 146 % of control.

Consider B12, for which the Ho/Con_2b is 168 % of control.

As for B13, the Ho/Con_2b was 104 % of control.

As to B14, the Ho/Con_2b was 20.2 % of control.

As for B15, the Ho/Con_2b was 88.2 % of control.

As to B16, the Ho/Con_2b is 209 % of control.

As for B17, the Ho/Con_2b is 116 % of control.

As for B18, the Ho/Con_2b was 159 % of control.

For the molecule B19, the Ho/Con_2b was 90.1 % of control.

As to B20, the Ho/Con_2b was 159 % of control.

For the molecule B21, the Ho/Con_2b was 106 % of control.

In the case of B22, the Ho/Con_2b is 159 % of control.

Regarding B23, the Ho/Con_2b was 78.7 % of control.

Regarding B24, the Ho/Con_2b is 207 % of control.

Turning to B25, the Ho/Con_2b is 96.6 % of control.

As for B26, the Ho/Con_2b is 68.5 % of control.

For B27, the Ho/Con_2b was 12.6 % of control.

Regarding B28, the Ho/Con_2b is 170 % of control.

Consider B29, for which the Ho/Con_2b is 106 % of control.

For the molecule B30, the Ho/Con_2b is 132 % of control.

Regarding B31, the Ho/Con_2b is 80.6 % of control.

B32: the Ho/Con_2b was 117 % of control.

For B33, the Ho/Con_2b is 147 % of control.

As for B34, the Ho/Con_2b was 97.1 % of control.

As to B35, the Ho/Con_2b was 44 % of control.

With B36, the Ho/Con_2b was 103 % of control.

For B37, the Ho/Con_2b was 127 % of control.

In the case of B38, the Ho/Con_2b was 97.9 % of control.

In the case of B39, the Ho/Con_2b was 109 % of control.

B40: the Ho/Con_2b is 109 % of control.

The values are drawn from US20180155451A1 (published 2018).
